Results taken from the Immune Epitope Database (IEDB).

Tests used:
Test in all cases: IEDB peptide-MHC binding, purified MHC/direct/fluorescence; filed as Kd, often an IC50 or EC50 that approximates it; ≥ and ≤ were set here for values at or beyond the usual limits of such assays
Settings in all cases: source organism: West Nile virus
[1] = molecular target: HLA-B*40:01
[2] = molecular target: HLA-B*15:01
[3] = molecular target: HLA-A*26:01
[4] = molecular target: HLA-A*24:03
[5] = molecular target: HLA-A*02:01
[6] = molecular target: HLA-B*08:01
[7] = molecular target: HLA-B*39:01
[8] = molecular target: HLA-B*07:02
[9] = molecular target: HLA-A*03:01
[10] = molecular target: HLA-B*27:05
[11] = molecular target: HLA-B*58:01
[12] = molecular target: HLA-A*01:01

AEVEEHRTV
Kd [1]: 130 nM

AMFEEQNQW
Kd [2]: 17 nM

DTITNVTTM
Kd [3]: 4 nM

ETTNWLWAF
Kd [3]: 2 nM

ETTNWLWTF
Kd [3]: 5 nM

EVMTAVGLM
Kd [3]: 5 nM

EYVGKTVWF
Kd [4]: 26 nM

FCIKVLCPY
Kd [3]: 314 nM

FLAVGGVLL
Kd [5]: 3 nM

FTRYRKEAI
Kd [6]: 39 nM

FVDVGVSAL
Kd [7]: 52 nM

GGRAHRMAL
Kd [8]: 63 nM

GLYKSAPRR
Kd [9]: 37 nM

GMSWITQGL
Kd [5]: ≤ 1 nM

GRGPIRFVL
Kd [7]: 162 nM

GRLVTVNPF
Kd [10]: 75 nM

GRMEKKTWK
Kd [10]: 103 nM

GSRAIWFMW
Kd [11]: 87 nM

GVIMPNGSY
Kd [2]: 29 nM

GYISTRVEL
Kd [4]: 45 nM

HSRRSRRSL
Kd [8]: 47 nM

HTTKGAALM
Kd [3]: 23 nM

ILLWEIPDV
Kd [5]: ≤ 1 nM

ILRNPGYAL
Kd [6]: 483 nM

IPTAAGKNL
Kd [8]: 150 nM

ISGKSTDMW
Kd [11]: 91 nM

ITYTDVLRY
Kd [12]: 3 nM

KENGVDLSV
Kd [1]: 3 nM

KIRNRIERL
Kd [6]: 254 nM

KSFLVHREW
Kd [11]: 11 nM

KSYAQMWLL
Kd [11]: 8 nM

KVAAAGVSY
Kd [2]: 165 nM

LAALGDTAW
Kd [11]: 66 nM

LAVSAYTPW
Kd [11]: 11 nM

LLLLVAPAY
Kd [2]: 87 nM

LLVAPAYSF
Kd [2]: 137 nM

LMNDPGAPW
Kd [2]: 40 nM

LRWLVERRF
Kd [10]: 98 nM

LTYRHKVVK
Kd [9]: 94 nM

LYAVTTAVL
Kd [4]: 8 nM

MLRKKQITV
Kd [6]: 35 nM

MTKEEFTRY
Kd [12]: 246 nM

MTRGLLGSY
Kd [3]: 8 nM

MVGVGSLVK
Kd [9]: 380 nM

NEAKVLELL
Kd [1]: 28 nM

NEVEVITKL
Kd [1]: 80 nM

QEGALHQAL
Kd [1]: 14 nM

QPAFMVASF
Kd [8]: 71 nM

QTDNQLAVF
Kd [12]: 168 nM

RAWNSGYEW
Kd [11]: 16 nM

REDIWCGSL
Kd [1]: 7 nM

REHSGNEIV
Kd [1]: ≤ 1 nM

RESFGVESF
Kd [1]: ≤ 1 nM

REWFMDLNL
Kd [1]: 9 nM

RFVLALLAF
Kd [4]: 176 nM

RLARAIIEL
Kd [5]: 3 nM

RPAADGKTV
Kd [8]: 97 nM

RPAVGGKTV
Kd [8]: 36 nM

RRFLEPVGK
Kd [10]: 50 nM

RRLAATTEK
Kd [10]: 37 nM

RRSRRSLTV
Kd [10]: 385 nM

RRWCFDGPR
Kd [10]: 11 nM

RRYGGGLVR
Kd [10]: 62 nM

RVIDSRKSV
Kd [8]: 97 nM

RVLEMVEDW
Kd [11]: 4 nM

RVYSDHQAL
Kd [8]: 205 nM

RYLVKTESW
Kd [4]: 4 nM

SLFGGMSWI
Kd [5]: ≤ 1 nM

SYHDRRWCF
Kd [4]: 9 nM

SYTLKLGEY
Kd [4]: 143 nM

TLARGFPFV
Kd [5]: 3 nM

TRAVGKPLL
Kd [7]: 141 nM

TVSPSAPTY
Kd [2]: 68 nM

TYGVCAKAF
Kd [4]: 13 nM

VEGLGLQKL
Kd [1]: 230 nM

VIQLNRKSY
Kd [2]: 105 nM

VLCPYMPKV
Kd [5]: 21 nM

VLRKRWTAK
Kd [9]: 43 nM

VLSLIGLKR
Kd [9]: 481 nM

VLWDTPSPK
Kd [9]: 117 nM

VSRLEHQMW
Kd [11]: 56 nM

VVEKQSGLY
Kd [12]: 6 nM

WEALDTMYV
Kd [1]: 27 nM

WFMWLGARF
Kd [4]: 10 nM

WMILRAISF
Kd [4]: 120 nM

WYDWQQVPF
Kd [4]: 7 nM

YQPEREKVY
Kd [2]: 80 nM

YTMDGEYRL
Kd [7]: 154 nM
